The values that follow come from PMC7060239 (2020).

Test [1] has as its target T1, human DNMT1 RFTS domain, residues 351–600 (human, UniProt P26358 351-600).
T1 chain: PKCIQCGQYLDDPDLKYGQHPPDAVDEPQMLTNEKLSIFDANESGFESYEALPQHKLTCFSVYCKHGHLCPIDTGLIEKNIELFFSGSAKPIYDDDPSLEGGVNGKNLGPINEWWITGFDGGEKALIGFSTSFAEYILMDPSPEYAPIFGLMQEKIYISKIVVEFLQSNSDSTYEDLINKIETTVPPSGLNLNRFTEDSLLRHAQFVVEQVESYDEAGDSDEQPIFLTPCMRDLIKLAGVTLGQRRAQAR
The test can be described thus: ITC. (Isothermal titration calorimetry measures the heat released or taken up as one component is titrated into another.)

In test [2] the target is T2, PHD finger of human UHRF1 (residues 299–366) (human, UniProt Q96T88 299-366).
T2 chain: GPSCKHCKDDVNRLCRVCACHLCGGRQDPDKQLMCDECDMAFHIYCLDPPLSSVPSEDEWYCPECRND
The test can be described thus: ITC.

B1: PAF15_(2-30) unmodified (peptide)
chain: VRTKADSVPGTYRKVVAARAPRKVLGSST
modifications: unmodified (no ubiquitin); taken as wild-type K15/K24, since the text describes K15C/K24C only for preparing the ubiquitylated analogs
In general, Kd refers to the constant that tells how readily two partners part at equilibrium. A higher Kd goes with a looser complex. Turning to B1, the affinity in test [1], expressed as Kd, was 6 µM.

B2: hPAF15_(2-11)-K5A peptide (peptide)
peptide: VRTAADSVPG
B2 displayed a Kd in test [2] of 5.7 µM.
